Consider 2 substances from PMC12790879.

The target in the assay is RHT1‐GRAS (truncated DELLA protein containing only the C‐terminal GRAS domain) (wheat (Triticum turgidum ssp. durum, cultivar Kronos)). Briefly: two-hybrid; yeast-three-hybrid (Y3H), quantitative alpha-galactosidase activity; DELLA-GRAS as AD, SPL3 or SPL4 as BD, VRN1 or FUL2 expressed as third protein; Method S10.

Take “FUL2 expressed as the third protein in the yeast‐three‐hybrid system (natural protein)”: the percent decrease of the DELLA-SPL3 interaction (m1 with m2) when expressed as third protein stood at 60% and the percent decrease of the DELLA-SPL4 interaction (m1 with m3) when expressed as third protein is 55%.
Take “VRN1 expressed as the third protein in the yeast‐three‐hybrid system (natural protein)”: the percent decrease of the DELLA-SPL3 interaction (m1 with m2) when expressed as third protein came to 48% and the percent decrease of the DELLA-SPL4 interaction (m1 with m3) when expressed as third protein came out at 36%.
